Data published in the RNAGym collection of RNA variant scans (doi:10.1073/pnas.2313332121).

B1: TPR t1 (parent)
chain: GACCAAUCUGCCCUCAGAGCUCGAGAACAUCUUCGGAUGCAGAGGAGGCAGGCUUCGGUGGCGCGAUAGCGCCAACGUCCUCAACCUCCAAUGCAUCCCACCACAUGAUGAUGCCUGAAGAGCCUUGGUUUUUUG

Variants of: B1
Test: polymerase ribozyme fitness, log enrichment relative to wild type (log ratio); higher = more active; in vitro selection for triplet polymerase activity
Method in brief: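 Both subunits of a heterodimeric triplet polymerase ribozyme were given their own mutant library, built by PCR and transcribed. Each library was annealed with a biotinylated primer, the partner subunit and triplets, incubated frozen at −7 °C, and its extended constructs gel-excised, captured on streptavidin beads and amplified by RT-PCR, all in one round done in triplicate. Fitness is the logarithm of genotype enrichment relative to wild-type enrichment, with replicates averaged by inverse-variance weighting. That logarithm is base 2, and Illumina-sequenced genotypes needed ≥10 input reads and ≥1 read per output.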

**Q.** Which “polymerase ribozyme fitness (log ratio)” value does the source give for G10A C73U A84U G110U here?
**A.** Its value is -2.38.

**Q.** For G10A C76G G120A, which “polymerase ribozyme fitness (log ratio)” value is on record?
**A.** Its value is 1.28.

**Q.** For G10A C79A C123U, which “polymerase ribozyme fitness (log ratio)” value is on record?
**A.** The value was 1.23.

**Q.** Which “polymerase ribozyme fitness (log ratio)” value does the source give for G10A C85U here?
**A.** Its value is -0.189.

**Q.** For G10A C86A, which “polymerase ribozyme fitness (log ratio)” value is on record?
**A.** The value was -0.0637.

**Q.** Which “polymerase ribozyme fitness (log ratio)” value does the source give for G10A C88G A111C here?
**A.** The value was -0.763.

**Q.** Which “polymerase ribozyme fitness (log ratio)” value does the source give for G10A C97A here?
**A.** The value was -4.44.

**Q.** With G10A C104U as the variant, how does the “polymerase ribozyme fitness (log ratio)” value read?
**A.** The value was -0.557.

**Q.** With G10A G19A C70A U96A C104U as the variant, how does the “polymerase ribozyme fitness (log ratio)” value read?
**A.** Its value is -6.15.

**Q.** Which “polymerase ribozyme fitness (log ratio)” value does the source give for G10A G19A C114U U133G here?
**A.** Its value is 0.465.

**Q.** With G10A G19C G63C U112G U133G as the variant, how does the “polymerase ribozyme fitness (log ratio)” value read?
**A.** The value was -5.97.

**Q.** For G10A G19U G61U, which “polymerase ribozyme fitness (log ratio)” value is on record?
**A.** The value was -4.88.

**Q.** For G10A G23A, which “polymerase ribozyme fitness (log ratio)” value is on record?
**A.** Its value is -4.78.

**Q.** Which “polymerase ribozyme fitness (log ratio)” value does the source give for G10A G39U G51A C70U here?
**A.** The value was -5.24.

**Q.** With G10A G42A A43U as the variant, how does the “polymerase ribozyme fitness (log ratio)” value read?
**A.** The value was -1.82.

**Q.** For G10A G42U C49A G61C C98A U112G U130G, which “polymerase ribozyme fitness (log ratio)” value is on record?
**A.** Its value is -7.46.

**Q.** With G10A G44A G63C as the variant, how does the “polymerase ribozyme fitness (log ratio)” value read?
**A.** Its value is -0.955.

**Q.** For G10A G45U, which “polymerase ribozyme fitness (log ratio)” value is on record?
**A.** The value was -1.26.

**Q.** Which “polymerase ribozyme fitness (log ratio)” value does the source give for G10A G45U G113A here?
**A.** Its value is -1.45.

**Q.** Which “polymerase ribozyme fitness (log ratio)” value does the source give for G10A G47C G63A C97U C101A C102U here?
**A.** Its value is -8.22.

**Q.** With G10A G48A G52A as the variant, how does the “polymerase ribozyme fitness (log ratio)” value read?
**A.** Its value is -1.11.

**Q.** For G10A G48A G63U C82G A91U G117C, which “polymerase ribozyme fitness (log ratio)” value is on record?
**A.** Its value is -5.31.

**Q.** With G10A G51U C56G as the variant, how does the “polymerase ribozyme fitness (log ratio)” value read?
**A.** The value was -5.12.

**Q.** For G10A G51U G71U C101A, which “polymerase ribozyme fitness (log ratio)” value is on record?
**A.** Its value is -6.07.

**Q.** For G10A G52A G60A C79A C115A, which “polymerase ribozyme fitness (log ratio)” value is on record?
**A.** The value was -2.07.

**Q.** For G10A G52C, which “polymerase ribozyme fitness (log ratio)” value is on record?
**A.** Its value is -0.471.

**Q.** For G10A G52U C56G C98U G113U, which “polymerase ribozyme fitness (log ratio)” value is on record?
**A.** The value was -6.91.

**Q.** For G10A G52U C72G C99U, which “polymerase ribozyme fitness (log ratio)” value is on record?
**A.** Its value is -4.47.

**Q.** With G10A G52U G63A C70G as the variant, how does the “polymerase ribozyme fitness (log ratio)” value read?
**A.** The value was -2.51.

**Q.** For G10A G60C C124A, which “polymerase ribozyme fitness (log ratio)” value is on record?
**A.** The value was 1.12.

**Q.** With G10A G61A as the variant, how does the “polymerase ribozyme fitness (log ratio)” value read?
**A.** Its value is 0.248.

**Q.** Which “polymerase ribozyme fitness (log ratio)” value does the source give for G10A G61C U87A C123A here?
**A.** Its value is -0.382.

**Q.** For G10A G69U C79U C98A, which “polymerase ribozyme fitness (log ratio)” value is on record?
**A.** Its value is -2.

**Q.** For G10A G69U G93A G110A A121U U132C, which “polymerase ribozyme fitness (log ratio)” value is on record?
**A.** The value was 0.47.

**Q.** Which “polymerase ribozyme fitness (log ratio)” value does the source give for G10A G93A here?
**A.** The value was 0.205.

**Q.** Which “polymerase ribozyme fitness (log ratio)” value does the source give for G10A G110A here?
**A.** The value was -1.12.

**Q.** With G10A G128U as the variant, how does the “polymerase ribozyme fitness (log ratio)” value read?
**A.** Its value is -2.02.

**Q.** Which “polymerase ribozyme fitness (log ratio)” value does the source give for G10A U33C A90G A118G here?
**A.** The value was -6.66.

**Q.** Which “polymerase ribozyme fitness (log ratio)” value does the source give for G10A U33C C86A A111U here?
**A.** The value was -6.34.

**Q.** Which “polymerase ribozyme fitness (log ratio)” value does the source give for G10A U54A A119G here?
**A.** Its value is 1.

**Q.** For G10A U55G, which “polymerase ribozyme fitness (log ratio)” value is on record?
**A.** Its value is -0.319.

**Q.** With G10A U55G G69C as the variant, how does the “polymerase ribozyme fitness (log ratio)” value read?
**A.** Its value is -1.36.

**Q.** With G10A U96G as the variant, how does the “polymerase ribozyme fitness (log ratio)” value read?
**A.** Its value is -0.411.

**Q.** Which “polymerase ribozyme fitness (log ratio)” value does the source give for G10A U112G here?
**A.** Its value is 1.07.

**Q.** With G10A U130C as the variant, how does the “polymerase ribozyme fitness (log ratio)” value read?
**A.** The value was 0.4.

**Q.** For G10C A16G A26U C72U C98U C115G, which “polymerase ribozyme fitness (log ratio)” value is on record?
**A.** The value was -6.74.

**Q.** With G10C A18C C20U C56U as the variant, how does the “polymerase ribozyme fitness (log ratio)” value read?
**A.** Its value is -3.11.

**Q.** For G10C A18U G93A U130C, which “polymerase ribozyme fitness (log ratio)” value is on record?
**A.** The value was -3.83.

**Q.** With G10C A27C U55C C70U as the variant, how does the “polymerase ribozyme fitness (log ratio)” value read?
**A.** The value was -7.04.

**Q.** For G10C A27U U87G, which “polymerase ribozyme fitness (log ratio)” value is on record?
**A.** The value was -3.55.

**Q.** For G10C A37C A66U, which “polymerase ribozyme fitness (log ratio)” value is on record?
**A.** The value was -2.37.

**Q.** Which “polymerase ribozyme fitness (log ratio)” value does the source give for G10C A41C G48A A74U C101U here?
**A.** Its value is -3.49.

**Q.** With G10C A41C G71C G122A as the variant, how does the “polymerase ribozyme fitness (log ratio)” value read?
**A.** Its value is -2.21.

**Q.** With G10C A43G G44C C49U G52C C56G G77A as the variant, how does the “polymerase ribozyme fitness (log ratio)” value read?
**A.** Its value is -6.25.

**Q.** Which “polymerase ribozyme fitness (log ratio)” value does the source give for G10C A74G here?
**A.** Its value is -1.26.

**Q.** With G10C C11A as the variant, how does the “polymerase ribozyme fitness (log ratio)” value read?
**A.** The value was -1.06.

**Q.** For G10C C11G C22G C76U, which “polymerase ribozyme fitness (log ratio)” value is on record?
**A.** Its value is -4.64.

**Q.** With G10C C11U C20U G48A C82U as the variant, how does the “polymerase ribozyme fitness (log ratio)” value read?
**A.** The value was -3.

**Q.** With G10C C12A A18C G42U G71A G117U G122U U130G as the variant, how does the “polymerase ribozyme fitness (log ratio)” value read?
**A.** Its value is -3.23.

**Q.** With G10C C12G C72A A105U as the variant, how does the “polymerase ribozyme fitness (log ratio)” value read?
**A.** Its value is -3.93.

**Q.** With G10C C15A A50U C115U as the variant, how does the “polymerase ribozyme fitness (log ratio)” value read?
**A.** Its value is -5.25.

**Q.** With G10C C15G G69C as the variant, how does the “polymerase ribozyme fitness (log ratio)” value read?
**A.** The value was -4.46.

**Q.** Which “polymerase ribozyme fitness (log ratio)” value does the source give for G10C C15U A41C C53G C89U here?
**A.** Its value is -3.28.

**Q.** With G10C C15U C53U C123A as the variant, how does the “polymerase ribozyme fitness (log ratio)” value read?
**A.** The value was 0.897.

**Q.** With G10C C49U C94U as the variant, how does the “polymerase ribozyme fitness (log ratio)” value read?
**A.** Its value is -1.58.

**Q.** For G10C C62U, which “polymerase ribozyme fitness (log ratio)” value is on record?
**A.** The value was -0.917.

**Q.** With G10C C64U C79U A105G as the variant, how does the “polymerase ribozyme fitness (log ratio)” value read?
**A.** The value was -3.38.

**Q.** For G10C C72U, which “polymerase ribozyme fitness (log ratio)” value is on record?
**A.** The value was -1.32.

**Q.** Which “polymerase ribozyme fitness (log ratio)” value does the source give for G10C C73G C85G here?
**A.** The value was -2.53.

**Q.** For G10C C76G, which “polymerase ribozyme fitness (log ratio)” value is on record?
**A.** Its value is -1.17.

**Q.** Which “polymerase ribozyme fitness (log ratio)” value does the source give for G10C C89U U129C here?
**A.** The value was -2.54.

**Q.** For G10C C99U, which “polymerase ribozyme fitness (log ratio)” value is on record?
**A.** The value was -4.44.

**Q.** With G10C G19C A43G C72U U112C C123A as the variant, how does the “polymerase ribozyme fitness (log ratio)” value read?
**A.** Its value is -1.54.

**Q.** For G10C G36A, which “polymerase ribozyme fitness (log ratio)” value is on record?
**A.** Its value is -1.22.

**Q.** With G10C G36A G71A as the variant, how does the “polymerase ribozyme fitness (log ratio)” value read?
**A.** The value was -2.47.

**Q.** For G10C G39A G61A, which “polymerase ribozyme fitness (log ratio)” value is on record?
**A.** The value was -1.27.

**Q.** Which “polymerase ribozyme fitness (log ratio)” value does the source give for G10C G42C G77A C85A C86G C114A here?
**A.** The value was -5.24.

**Q.** Which “polymerase ribozyme fitness (log ratio)” value does the source give for G10C G47U C89U here?
**A.** The value was -5.13.

**Q.** For G10C G51A U106A U112A, which “polymerase ribozyme fitness (log ratio)” value is on record?
**A.** The value was -5.36.

**Q.** For G10C G60U G135C, which “polymerase ribozyme fitness (log ratio)” value is on record?
**A.** The value was -0.497.

**Q.** Which “polymerase ribozyme fitness (log ratio)” value does the source give for G10C G61U here?
**A.** Its value is -1.1.

**Q.** For G10C G61U U109C, which “polymerase ribozyme fitness (log ratio)” value is on record?
**A.** Its value is -5.18.

**Q.** With G10C G63U as the variant, how does the “polymerase ribozyme fitness (log ratio)” value read?
**A.** Its value is -2.32.

**Q.** Which “polymerase ribozyme fitness (log ratio)” value does the source give for G10C G69U G107C G120U here?
**A.** Its value is -2.44.
